Measured values: publication PMC5566391

Legend:
[1] = target: TRAIL-Trimer fusion protein (human) (UniProt P50591); assay: SDS-PAGE under non-reducing and reducing conditions; 2 µg of purified protein on 10% or 15% SDS-PAGE, Coomassie Blue; TRAIL-Trimer also by western blot
[2] = target: T1, TRAIL-Fc fusion protein (human), P50591; assay: as above; details: remark: other sources report otherwise
T1 chain: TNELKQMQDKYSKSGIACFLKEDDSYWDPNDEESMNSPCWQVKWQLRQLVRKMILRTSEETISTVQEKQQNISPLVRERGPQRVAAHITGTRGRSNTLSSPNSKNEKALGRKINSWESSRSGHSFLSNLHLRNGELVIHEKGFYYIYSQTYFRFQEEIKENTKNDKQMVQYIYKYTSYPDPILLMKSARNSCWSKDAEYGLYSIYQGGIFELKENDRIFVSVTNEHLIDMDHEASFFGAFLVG

Work on “TRAIL-Trimer fusion protein (from UniProt P50591 39-281) (ligand)” yielded a stoichiometry N [1] of 3.

B1: TRAIL-Fc fusion protein, P50591 39-281 (Fc fusion)
chain: TNELKQMQDKYSKSGIACFLKEDDSYWDPNDEESMNSPCWQVKWQLRQLVRKMILRTSEETISTVQEKQQNISPLVRERGPQRVAAHITGTRGRSNTLSSPNSKNEKALGRKINSWESSRSGHSFLSNLHLRNGELVIHEKGFYYIYSQTYFRFQEEIKENTKNDKQMVQYIYKYTSYPDPILLMKSARNSCWSKDAEYGLYSIYQGGIFELKENDRIFVSVTNEHLIDMDHEASFFGAFLVG
Work on B1 yielded a stoichiometry N [2] of 2.
